# The nanobody polyreactivity screen of Harvey et al. (2022)
# Assay: yeast display, Sf9 membrane polyspecificity reagent, FACS + sequencing; frameworks hold sequencing errors
# Method in brief: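 A synthetic nanobody library was expressed on Saccharomyces cerevisiae BJ5465 by galactose induction for 36–48 hours. The library was stained for 1 hour at 4 °C with 10% biotinylated, detergent-solubilized Sf9 membrane reagent and enriched with streptavidin microbeads before FACS. Low and high (top ~1%) gates were set on anti-HA fluorescence for expression and streptavidin fluorescence for reagent binding, and each polyreactivity label reflects the gate of origin.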
row,Sequence,polyreactivity (PSR sort gate)
1,QVQLVESGGGLVQAGGSLRLSWAASGFTFTSYTMGWYTPAPGKERELVAAISNTGGSTYYADSVKGRFTISRDNAKNTVYLQMNSLKPEDTAVYYCAARTHTYGKFWRYYWGQGTQVTVSS,low polyreactivity
2,QVQLVESGGGLVQAGGSLRLSCAASGFIFAYNAMGWYRQAPGKERELVAAISIDTSTYYADSVKGRFTISRDNAKNTVYLQMNSLKPEDTAVYYCAADHVPFRLTELYYWGQGTQVTVSS,low polyreactivity
3,QDQLVESGGGLVQAGGSLRLSCASSGSTFVRYAMGWYRQAPGKERELVATISKSGGSTSYADSVKGRFTISRDNAKNTVYLQMNSLKPEDTAVYYCAADFLYIWAIFDYWGQGTQVTVSS,low polyreactivity
4,QVQLVESGGGLVQAGGRLRLSCAASGSTFRYYAMGWYRQAPWKERELVAAISSTGTRTYYADSVKGRFTISRDNAKNTVYLQMNSLKPEDTAVSYCAADYVRYATRYDYWGQGTQVTVSS,high polyreactivity
5,QDQHVESGGGLLQAGGSLRLTCAAYGSIFTDYAMGWYRQPPGKERELVAAITRIGTRTYYADSVKGRFTISRDNAKNTVYLQMNSLKPEDTAVYYCAASGYSPVRWVWLYYWGQGTQVTVSS,high polyreactivity
6,QVQLLESGGGLVQAGGTLRLSCAASGSIFFRNAMGWYRQAPGKERELVAAITWNGGSTYYADSVKGRFTISRDNAKNTVYLQMNSLKPDDTAVYYCNKYYYYRDSGYWGQGTQVTVSS,high polyreactivity
7,QVQLVESGGRLVQAVGSLRLRCAAAGRTFPVYAMGWYRQAPGKERELVAAIRGRSVRKYYADSVKGRFTISRDYAKNTVYLQMNSLKPEDTAVYYCAAYYLNPGMDYWGQGTQVTVSS,high polyreactivity
8,QVQLVESGGGLVQAGGSLRLSCAASGFTFRQYAMGWYRQAPGKERELVAAISRSGSRTYYADSVKGRFTISRDNAKNTVYLQMNSLKPEDTAVYYCAARSYYNGKISRVGYWGQGTQVTVSS,high polyreactivity
9,QVQLVESGAGLVQAGGSLRLCCAASGFIFRVYAMGLYRQAPGKERELVAAISDSGGSTTYADSVKGRFTISRDNAKNTVYLQMNSLKPEDTAVYYCAAKLPRSRYRGVDYWGQGTQVTVSS,low polyreactivity
10,QVQLVESGGGLVQAGGSLRLSCAASGRTFASYAMGWYRQAPGKERELVATIRRSGTSTYYADSVKGRFTISRDNAKNTVYLQMNSLKPEDTAVYYCAALRSLLYRTYGYWGQGTQVTVSS,low polyreactivity
11,QVQLVESGGGLVQAGGSLRLSCAASGRIFGRYAMGWYRQAPGKEREFVAAISKRGGGTYYADSVKGRFTISRDNAKNTVYLQMISLKPEDTAVYYCAVDNSPGFDDYDYWGQGTQVTVSS,high polyreactivity
12,QVQLVESGGGLVQAGGSLRLSCAASGRIFDIYAMGWYRQAAGKERELVAAIRLSSGTTYYADSVKGRFTISRDNAKNTVYLQMNSLKPEDTAVYYCGADFIRPPYDYWGQGTQVTVSS,high polyreactivity
13,QVQLVESGGGLVQAGGSLRLSCAASGSTFCYYDMGWYRQAPGKERELVATISSGGGTNYAASVKGRFTISRDNAKNTVYLQMNSLKPEDTAVYYCAAQYVIRITFYATYWEDYWGQGTQVTVSS,low polyreactivity
14,QVQLVESGGGLVQAGGSLRLSCAASGSIFGNYVMGWYRQAPGKERELVAAITSDGSTYYADSVKGRFTISRDNAKNTVYLQMNSLKPEDTAVYYCNAVYEGLQSRWYKGGLYSFDYWGQGTQVTVSS,low polyreactivity
15,QVQLVESGGGLVQAGGSLRLSCAASGSTFIANAMGWYRKAPGKERELVAAISQSGDSTYYADSVKGRFTISRENAKNTVYLQMNSMKPEDTAVYYCAAEDVDGYEYWGQGTQVTVSS,high polyreactivity
16,QVQRVESGGGLVQAGGSLRLSCAASGYTSQVKDMGWYRQAPGKERELVAAISSTGDRTYYADSVKGRFTISRDNAKNTVYLQMNSLKPEDTAVYYCNADLTSYYEEDERNDDDYWGQGTQVTVSS,low polyreactivity
17,QVEHVDSGGGLVQAGGSLRLSCAASGRTIWDYMGWYRQAPGKEREVVATITSSGGSTYYADSVKGRFTISRDNAKNTVYLQMNSLKPEDTAVYYCNADWYLWSTFAQGYGYWGQGTQVTVSS,high polyreactivity
18,QVQIVESGGGLVQAGGSLRLSCAASGFIFGIYDMGWYRQAPGKERELYADSVKGRFTISRDNAKNTVYLQMNSVKPEDTAVYYCNRAQGVHTYVYRYGYWGQGTQVTESS,low polyreactivity
19,QVQLVESGGGLVQAGGSLRLSCAASGSTFRGYAMGWYRQAPGKERELVAAITRGGSTYYADSVKGRFTISRDNAKNTVYLQMNSLKPEDTAVYYFYDYWGQGTQVTVSS,low polyreactivity
20,QVQLVESRGGLVQAGGSLRLSCADSGITFYVYTMGWNIKAPGKQRDLVASISGRGGSTYYAVSVKGRFTISRDNAKNTVYLQMNSLKPEDTAVYYCEAYRLRFWSMDYWGQGTQVTGSS,high polyreactivity
21,QVQLVESGGGIVQAGGSLSLSCAASGRSFRYYAMGWYRQAPGKEREMVAAIDTSSGSTYYADSVKGRFTISRDNAMNTVFLQMNSLKPEDTAVYYCNATWWIPLIYDYWGQGTHVTVSS,low polyreactivity

row,Sequence,polyreactivity (PSR sort gate)
1,QVQLEETRGGLVQAGGSLRLSCAASGSIFPYYALGWYRQAAGKERELVASINQTDGTTYYADSVKGRFTISRDNAKNNVYLQMNSLKPDDTAFYYCPADTTLQAFIPYRPIGSYDSWGQGTQVTVSS,low polyreactivity
2,QVQLVESGGGLVQAGGSLRLSCAASGFTFSTYAMGWYRPAPGKERELGAAISRSGGSTYYADSVKGRFTISRDNAKNTVYLQMNSLKPEDTAVYYCAADGLRRESSYYYWAQGTQVTVSS,high polyreactivity
3,QVQLVESGGGLVQAGGSLRLCCAASGFTFSWYAMGWYRQAPGKERELVAAISSSGGSTYYADSVKGRFTISRDNAKNTVYLQMYSLKPEDTAVYYCNAYRSASVVVGYDYWGQGTQVTVSS,high polyreactivity
4,QVQLVESCGGLVQAGGSLRLSCAASGSTFINYAMGWYRQAPGKERELVAAYAYSVKGRFTISRDNAKITVYLQMKSLKPEDTAVYYCNAVTGDWGQGTQVTVSS,low polyreactivity
5,QVQLVESGGGLVQAGGSLRLSCAASGRTFTRNAMGWYRQAPGKDRELVAAISYSGGSTYYADSVKGRFTISRDNAKNTVYLQMNSLKPEDTAVYYCNAATSRRSIRYDYWGQGTQVTVSS,high polyreactivity
6,QVQLVESGGGLVQAGGSLRLSCAASGRIYYSNVMGWYRQAPGTERELVAAISGRTGGTYYADSVKGRFTISRDNAKNTVYLQMNSLKPEDTAVYYCAARVIYYYGYCTYDYWGQGTQVTVSS,low polyreactivity
7,QVQLVESGGGLVQAGGSLRLSCAASGFIFQDYALGWYRKAPGKERELVAAITQSSGSTYYADSVKGRFTISRDNAKNTVYLQMNSLKPEDTAVYYCNTAYDFSRQASYDYWGQGTQVTVSS,low polyreactivity
8,QVQLVESGGGLVQAGGSLRLSCAASGYTFVNYAMGWYRQAPGKERELVAAITSRGSSTYYADSVKGRFTISRDNAKNTVYLQMKSLKPEDTAVYYCFVHVRNHDYWGQGTQVTVSS,high polyreactivity
9,QVQLVESGGGLVQAGGSLRLSCAASGLIFRYYCMGWSRQAPRKERELVATINRSGGRTYYADSVKGRFTISRDNAKNTDSLQMNSQKRDETAVYYCAALPEVYWIYGPQMDYWGQGTQVNVSS,high polyreactivity
10,QVQLVESGGGLVQAGGSLRLSCAASGSTFRFYAMGWYRQAPGKERELVAAITWRSGRTSYADSVKGRFTISRDNAKNTVYLQMNSLKPDDTAVYYCAATSVYRYDYWGQGTLVTVSS,high polyreactivity
11,QVQLVESGGGLVQAGGSLRLSCAASGNTFYLYAMGWYRQAPGKEREFVAAITGNGGSTYYADSVKGRFTISRDNAKNTVYLQMNSLKPEDTEVYYCAATFWGYNQYDYWGQGTQVTVSS,high polyreactivity
12,QVQLVESGGGLVQAGGSLRLSCAASGSTFYAYAMGWYRQAPGKERELVAAISSDGTNYADSVKGRFTISRDNAKNTVYLQMNSLKPEDTAVFYCAADLLLYSSQDNDYWGQGTQVTVSS,low polyreactivity
13,QVQLVESGGGLVQAGGSLRLSCAASGITFPYYAMGWDRQAPGKERELVAAISSSGGSTYYADSVKGRFTISRDNAKNTVYLQMNSLKPEDTAVYYCAAQRYINYDYWGQGTQVTVSS,high polyreactivity
14,QVQLVETGGGLVQAGGSLRLSCAASGRIFGYYTMGWYRPAPGKERELVADSSGGNTSYADSVKGRFTISRDNAKNTVYLQMNSLKPEDTAVYYCAKDLPGAWRGDDYWGQGTLVTVSS,low polyreactivity
15,QVQLVESGGGLVQAGGSLRLSCSASGSIFYVYAMGWYRPAPGKERELVAAITSSGTTNYADSVKGRFTISRDNAKNTVYLQMNSLKPEDTAVYYCAADPDSGQVPFDYWVQGTQVTVSS,low polyreactivity
16,QVQLVESGGGLVQAGGSLRLSCAASGSTFPLYAMGWYRQAPGKEREMVAAITGGGGRTYYADSVKGRFTISRDNAKNTVYLQMNSLKPEDTAVYYCNAVVYLTNYWYDYWGQGTQVTVSS,low polyreactivity
17,QVQLVESGGGLVQAGGSLRLSCAASGLTFRYNAMGWYRQAHGKERELVARISRNGGRTYYADSVKGRFTISRDNAKNTVYLQMNSLKPEDSAVYYCNVVYFVTTSPGYDYWGQGTKVTVSS,high polyreactivity
18,QVQLVESGRGLVEAGGSLRLSCAASGFIFLPYAMVWYRQAPGKERELVAAITRGGRTYYADSVNRRFTISRDNAKNTVYLQMNSLKPEDTAVYDCAATTYLVWGYNYWGQGTQVTVSS,low polyreactivity
19,QVQLVESGGGLVQAGGSLRLIFAASGIIFGRYPMGWYRPAPGKERELVAAITSGGSTSYADSVKGRFTISRDNAKNTVYLQMNSLKPEDTAVYYCAVVFVWGWPGYYWGQGTQVTVSS,high polyreactivity
20,QVQLVESGLGLLQAGGSLRLSCAASGFIFRLYTMGRYREAPGKVRELVASISSAGSTNYADSVKGRFTISLDNAKNTVYLQMNSLKPDDTAVYDCDKYYGQFYPPTLGYWGQCTQVTVSS,low polyreactivity
